This series in a line: protein stability index of a GFP-peptide fusion (yeast GPS) (PSI 1-4); higher = more stable; sorted into four equal gates, so the index is relative within each strain. The essentials: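 The protein stability index combines read frequencies across sorting gates, each weighted by its gate number and then summed. To obtain those frequencies, a pooled yeast library of GFP fusions to tiled 17-residue yeast protein peptides, on a plasmid also expressing Cherry, was grown to mid-log phase in leucine-free medium. The cells were sorted into four equal gates by GFP/Cherry ratio before plasmid amplification by PCR and Illumina sequencing.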

± gives the uncertainty stated by the source.

Protein stability index data for 25 sequences are collected here from the supplement of paper PMC9732359.

For DTKDALSTRELAGKVGS [RPC53], the protein stability index amounted to 2.8 ± 0.08 (doa10∆), 2.27 ± 0.084 (pdr5∆), 2.79 ± 0.1 (san1∆) and 3.08 ± 0.071 (ubr1∆).
For RKFERARGRRRSKGFKV [RPL18A], in that order: 3.28 ± 0.1, 3.24 ± 0.094, 3.54 ± 0.12 and 3.15 ± 0.059.
As for LNTVLIADLDTEAEETS [RRP43], the protein stability index is, setting by setting: (doa10∆) 3.11 ± 0.08; (pdr5∆) 2.87 ± 0.065; (san1∆) 3.04 ± 0.047; (ubr1∆) 3.21 ± 0.051.
The corresponding values for KSIQDIVGLATLIVNTD [SRP21] are 2.85 ± 0.054, 3.05 ± 0.05, 2.93 ± 0.039 and 2.97 ± 0.037.
With LNSLKDERSQGEKNFTS [SMC4], the protein stability index is, setting by setting: (doa10∆) 3.41 ± 0.12; (pdr5∆) 3.3 ± 0.25; (san1∆) 3.05 ± 0.087; (ubr1∆) 3.5 ± 0.11.
For RKHHKKGITEEVAKKRS [RPL24A], in that order: 3.36 ± 0.12, 3.45 ± 0.2, 3.19 ± 0.17 and 3.02 ± 0.092.
The sequence LDERGHEKIEDEDEDND [RPN4] gave a protein stability index (doa10∆) of 3.37 ± 0.25, a protein stability index (pdr5∆) of 3.44 ± 0.15, a protein stability index (san1∆) of 3.48 ± 0.13 and a protein stability index (ubr1∆) of 3.32 ± 0.17.
The corresponding values for KTCQWYSEHLKPYDINV [DIS3] are 2.78 ± 0.28, 2.95 ± 0.14, 2.74 ± 0.094 and 2.84 ± 0.072.
The corresponding values for CLDQMTEQFCATLNYID [SRB7] are 2.39 ± 0.043, 2.87 ± 0.047, 2.99 ± 0.049 and 2.65 ± 0.039.
For SPELKADLRPLQIKSIR [RPS7B], in that order: 2.42 ± 0.14, 2.9 ± 0.13, 2.67 ± 0.13 and 2.98 ± 0.091.
Consider KLTVCFDDILKVGAEMM [MED2], for which the protein stability index runs as follows: (doa10∆) 1.97 ± 0.07; (pdr5∆) 1.95 ± 0.06; (san1∆) 1.89 ± 0.11; (ubr1∆) 2 ± 0.041.
The corresponding values for KLKNNASRSQLEKGEIE [YJL039C/NUP192] are 3.18 ± 0.11, 2.98 ± 0.1, 2.66 ± 0.083 and 3.08 ± 0.087.
For LSAADIVAQSEVEVSTR [RPO31], in that order: 2.33 ± 0.09, 2.53 ± 0.11, 2.54 ± 0.094 and 2.84 ± 0.068.
As for KANISLETLEHNGAPHH [RPO21], the protein stability index reads like this: (doa10∆) 3.29 ± 0.16; (pdr5∆) 3.05 ± 0.15; (san1∆) 3.19 ± 0.12.
Take KTQEYYTQYTNDYLEKH [CDC53]: the protein stability index reads like this: (doa10∆) 2.99 ± 0.062; (pdr5∆) 2.42 ± 0.067; (san1∆) 2.96 ± 0.049; (ubr1∆) 3.22 ± 0.062.
As to DPFKTSSFNKRSKFLST [IRR1], the protein stability index is 2.15 ± 0.074 (doa10∆), 2.46 ± 0.053 (pdr5∆), 2.04 ± 0.082 (san1∆) and 2.12 ± 0.057 (ubr1∆).
The corresponding values for NVDKNLNEIKEHKIVVL [RPN14] are 2.39 ± 0.085, 2.38 ± 0.069, 2.42 ± 0.1 and 2.74 ± 0.1.
For LSRAEYDSDSDSSVEDS [LIN1], in that order: 3.14 ± 0.17, 2.96 ± 0.16, 2.87 ± 0.085 and 3.16 ± 0.084.
For SSDAFEVDVCDKCGLMG [RET1], in that order: 2.38 ± 0.18, 2.59 ± 0.11, 2.33 ± 0.19 and 2.12 ± 0.11.
In the case of TNAKLPNVDLVTALEVL [RGR1], the protein stability index by setting is: (doa10∆) 2.09 ± 0.089; (pdr5∆) 2.28 ± 0.052; (san1∆) 2.44 ± 0.07; (ubr1∆) 2.26 ± 0.061.
Take FSERAAMFAALQQKQQQ [SWI1]: the protein stability index reads like this: (doa10∆) 1.7 ± 0.042; (pdr5∆) 2.15 ± 0.042; (san1∆) 2.05 ± 0.078; (ubr1∆) 2.01 ± 0.027.
ASNGRNKKGRGHVKPVR [RPS26A] gave a protein stability index (doa10∆) of 3.46 ± 0.075, a protein stability index (pdr5∆) of 3.35 ± 0.086, a protein stability index (san1∆) of 3.45 ± 0.082 and a protein stability index (ubr1∆) of 3.3 ± 0.056.
For NTLLISGPFKVNGVPLR [RPL6A], in that order: 2.25 ± 0.074, 2.36 ± 0.059, 2.28 ± 0.076 and 2.72 ± 0.04.
In turn, DEDEDNDLDEDDIYDIS [RPN4] returned a protein stability index (pdr5∆) of 3.46 ± 0.2, a protein stability index (san1∆) of 3.56 ± 0.11 and a protein stability index (ubr1∆) of 3.33 ± 0.15.
Consider KPGSTVMLLGTPDANLI [UBP6], for which the protein stability index by setting is: (pdr5∆) 3.58 ± 0.24; (ubr1∆) 3.38 ± 0.12.
